Test results: patent publication US20250276075A1, “METHODS OF TREATING AXL-EXPRESSING CANCERS WITH ANTI-AXL ANTIBODIES, ANTIBODY FRAGMENTS AND THEIR IMMUNOCONJUGATES” (BIOATLA, INC., priority 2020, published 2025)

T1: Axl (Homo sapiens, UniProt P30530)
T1 sequence (P30530 26-451 limits assumed): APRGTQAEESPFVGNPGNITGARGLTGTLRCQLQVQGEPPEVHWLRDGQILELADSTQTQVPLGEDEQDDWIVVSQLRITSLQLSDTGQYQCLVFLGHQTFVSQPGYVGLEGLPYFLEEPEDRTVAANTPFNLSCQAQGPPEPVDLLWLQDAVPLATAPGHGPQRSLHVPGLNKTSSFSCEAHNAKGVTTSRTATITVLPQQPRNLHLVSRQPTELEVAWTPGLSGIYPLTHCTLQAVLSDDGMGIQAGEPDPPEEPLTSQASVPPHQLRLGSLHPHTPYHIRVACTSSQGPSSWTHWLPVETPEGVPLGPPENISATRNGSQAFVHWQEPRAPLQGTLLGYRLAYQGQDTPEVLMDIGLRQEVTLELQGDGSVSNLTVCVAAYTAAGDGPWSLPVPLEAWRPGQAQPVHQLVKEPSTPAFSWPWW


Columns and labels:
[1] = target: Axl (UniProt P30530); assay: ELISA, 1:3 dilution
[2] = target: T1, Axl; assay: Affinity ELISA of CPE mutant antibodies for binding to Axl at pH 6.0 over pH 7.4; settings: light chain variable region mutants; for Affinity ELISA CPE mutant ratio (1:3, pH 6.0/7.4): 1:3 dilution; for Affinity ELISA CPE mutant ratio (1:9, pH 6.0/7.4): 1:9 dilution
Description: The DNA encoding the wild-type antibody was evolved to generate a mutant antibody library using Comprehensive Positional Evolution (CPE), which each position in the template antibody is randomized one at a time. Each mutant antibody in the library has only one single point mutation. The mutant antibodies in the library were generated by simultaneously screening for selective binding affinity to Axl at pH 6.0 over pH 7.4 by ELISA. Two mutant antibody dilutions were used: 1:3 and 1:9 dilutions. The mutant antibodies that have at least 1.5 ratio of binding affinity at pH 6.0 to at pH 7.4 under either 1:3 or 1:9 dilution are selected as conditionally active antibodies, with the single point mutations indicated in each of the heavy chain and light chain variable region (Tables 1 and 2).
A wild-type antibody to Axl was selected as the template antibody (with a heavy chain variable region of 063-hum10F10-HC in FIG. 1A and a light chain variable region of […]). The DNA encoding the wild-type antibody was evolved to generate a mutant antibody library using Comprehensive Positional Evolution (CPE), a method by which each position in the template antibody is randomized one at a time. Each mutant antibody in the library has only one single point mutation. The mutant antibodies in the library were generated by simultaneously screening for selective binding affinity to Axl at pH 6.0 over pH 7.4 as determined by ELISA.
Simultaneously, the expression level of the mutant antibodies was also optimized for the purpose of higher fields in a manufacturing process. The screening was done in serum using a FLAG tag because there were human antibodies in the serum which might cause false positives for the screening. The screening buffer was a carbonate buffer (Krebs buffer with ringer-standard buffer but different from PBS). […] Some of the selected mutant antibodies (scFv) were represented in FIG. 2 with their higher activity at pH 6.0 than at pH 7.4, while their activity ratios between pH 6.0 to pH 7.4 were at least 11 fold (FIG. 3).

[3] = target: Axl (UniProt P30530); assay: ELISA, 1:9 dilution

Molecule	Affinity ELISA CPE mutant ratio (1:3, pH 6.0/7.4) [1]	Affinity ELISA CPE mutant ratio (1:3, pH 6.0/7.4) [2]	Affinity ELISA CPE mutant ratio (1:9, pH 6.0/7.4) [2]	Affinity ELISA CPE mutant ratio (1:9, pH 6.0/7.4) [3]
LC-H091L (antibody, V domains shown) VH: EVQLVQSGAEVKKPGATVKISCKVSGYSFTGHTMNWIRQPPGKGLEWIGLIKPSNGGTSYNQKFKGRVTISADKSISTAYLQWSSLKASDTAMYYCAHGHYESYFAMDYWGQGTLVTVSS VL: DIQMTQSPSSLSASVGDRVTITCKASQDVSSAVAWYQQKPGQAPRLLIYWASTRHTGVPSRFSGSGSGTEFTLTISSLQPDDFATYYCQELFSTPLTFGQGTKVEIK	2.8	2.798	2.081	2.08
LC-H091F (antibody, V domains shown) VH: EVQLVQSGAEVKKPGATVKISCKVSGYSFTGHTMNWIRQPPGKGLEWIGLIKPSNGGTSYNQKFKGRVTISADKSISTAYLQWSSLKASDTAMYYCAHGHYESYFAMDYWGQGTLVTVSS VL: DIQMTQSPSSLSASVGDRVTITCKASQDVSSAVAWYQQKPGQAPRLLIYWASTRHTGVPSRFSGSGSGTEFTLTISSLQPDDFATYYCQEFFSTPLTFGQGTKVEIK	1.6	1.603	2.116	2.12
LC-A051P (antibody, V domains shown) VH: EVQLVQSGAEVKKPGATVKISCKVSGYSFTGHTMNWIRQPPGKGLEWIGLIKPSNGGTSYNQKFKGRVTISADKSISTAYLQWSSLKASDTAMYYCAHGHYESYFAMDYWGQGTLVTVSS VL: DIQMTQSPSSLSASVGDRVTITCKASQDVSSAVAWYQQKPGQAPRLLIYWPSTRHTGVPSRFSGSGSGTEFTLTISSLQPDDFATYYCQEHFSTPLTFGQGTKVEIK	1.92	1.920	1.569	1.57
LC-P095D (antibody, V domains shown) VH: EVQLVQSGAEVKKPGATVKISCKVSGYSFTGHTMNWIRQPPGKGLEWIGLIKPSNGGTSYNQKFKGRVTISADKSISTAYLQWSSLKASDTAMYYCAHGHYESYFAMDYWGQGTLVTVSS VL: DIQMTQSPSSLSASVGDRVTITCKASQDVSSAVAWYQQKPGQAPRLLIYWASTRHTGVPSRFSGSGSGTEFTLTISSLQPDDFATYYCQEHFSTDLTFGQGTKVEIK	3.95	3.949	2.889	2.89
LC-P095C (antibody, V domains shown) VH: EVQLVQSGAEVKKPGATVKISCKVSGYSFTGHTMNWIRQPPGKGLEWIGLIKPSNGGTSYNQKFKGRVTISADKSISTAYLQWSSLKASDTAMYYCAHGHYESYFAMDYWGQGTLVTVSS VL: DIQMTQSPSSLSASVGDRVTITCKASQDVSSAVAWYQQKPGQAPRLLIYWASTRHTGVPSRFSGSGSGTEFTLTISSLQPDDFATYYCQEHFSTCLTFGQGTKVEIK	2.35	2.350	2.630	2.63
LC-A051N (antibody, V domains shown) VH: EVQLVQSGAEVKKPGATVKISCKVSGYSFTGHTMNWIRQPPGKGLEWIGLIKPSNGGTSYNQKFKGRVTISADKSISTAYLQWSSLKASDTAMYYCAHGHYESYFAMDYWGQGTLVTVSS VL: DIQMTQSPSSLSASVGDRVTITCKASQDVSSAVAWYQQKPGQAPRLLIYWNSTRHTGVPSRFSGSGSGTEFTLTISSLQPDDFATYYCQEHFSTPLTFGQGTKVEIK	1.41	1.412	2.200	2.2
LC-P095E (antibody, V domains shown) VH: EVQLVQSGAEVKKPGATVKISCKVSGYSFTGHTMNWIRQPPGKGLEWIGLIKPSNGGTSYNQKFKGRVTISADKSISTAYLQWSSLKASDTAMYYCAHGHYESYFAMDYWGQGTLVTVSS VL: DIQMTQSPSSLSASVGDRVTITCKASQDVSSAVAWYQQKPGQAPRLLIYWASTRHTGVPSRFSGSGSGTEFTLTISSLQPDDFATYYCQEHFSTELTFGQGTKVEIK	7.12	7.121	7.511	7.51
